In paper PMC7367191, “Intrinsic disorder is essential for Cas9 inhibition of anti-CRISPR AcrIIA5”:

Molecular target: Cas9;AcrIIA5 (Streptococcus pyogenes;virulent phage …, UniProt Q99ZW2;A0A220GHA5 1-1368;1-140, |)
Assay: EMSA; 5 mM Mg2+; AcrIIA5 0.4-4 uM supershifts Cas9-sgRNA 0.2 uM; EMSA: 20 mM Tris-HCl pH 7.5, 150 mM KCl, 5 mM MgCl2, 1 mM DTT, 5% glycerol, 25 C, 40 min; sgRNA 200 nM, Cas9 400 nM; 6% PAGE, SYBR Gold
Details: protein: recombinant;recombinant; tags: N-terminal His6 (pET28); copies: 1;1; single strand, guide plus sgRNA scaffold hairpins

B1: Cas9 sgRNA (structured_RNA)
RNA: GGAAAUUAGGUGCGCUUGGCGUUUUAGAGCUAGAAAUAGCAAGUUAAAAUAAGGCUAGUCCGUUAUCAACUUGAAAAAGUGGCACCGAGUCGGUGCUU
binding result: binds
